{
  "source": "paper PMC2645672",
  "about": "“Mechanism of Neuronal versus Endothelial Cell Uptake of Alzheimer's Disease Amyloid β Protein” (PLoS ONE, 2009)",
  "key": {"[1]": {"test_system": "wild type (WT) mouse brain slices", "settings": "cited from earlier work", "description": "The uptake of ^125I-Aβ40 in WT mouse brain slices at 4 or 37°C was determined following 15 min incubation in oxygenated KRB containing 5–900 ng/ml (0.02–3.5 µCi/ml) concentrations of ^125I-Aβ40. The 15 min incubation time was selected based on our earlier observations that ^125I-Aβ40 uptake in the brain slices was linear up to 15 mi ..."}, "[2]": {"test_system": "differentiated PC12 cells", "settings": "cited from earlier work"}, "[3]": {"test_system": "differentiated PC12 cells"}, "[4]": {"test_system": "bovine brain microvascular endothelial (BBME) cells", "assay": "Cellular uptake by flow cytometry in BBME cells", "settings": "F-Aβ40 and AF633-Trf simultaneously, cells trypsinized", "description": "Bovine brain microvascular endothelial (BBME) cells were obtained frozen from Cell Applications Inc. (San Diego, CA) and were grown in 75 cm^2 cell culture flasks coated with collagen. The growth medium was made of equal parts DMEM and F-12 Ham nutrient mix containing amphotericin B (2.5 µg/ml), HEPES (10 mM), donor horse serum (10%), penicillin (100 units/ml), and gentamicin sulphate (15 µm/ml). After reaching 70–80% confluency, the cells were harvested, seeded (80,000 cells/cm^2) on six-well cell culture plates coated with 0.01% rat tail collagen, and grown under 5% CO2 at 37°C.\n(§1) In addition, flow cytometry studies were conducted to quantify the uptake of F-Aβ40 or F-Aβ42 and AF633-Trf by PC12 cells and BBME cells at 4°C or under ATP depleted conditions. At the end of these flow cytometry experiments, the cells were washed three times with ice-cold PBS, trypsinized, and centrifuged at 2000 ×g. The cell pellet was washed with and re-suspended in ice cold PBS, and analyzed.\n(§2) FACScan (Becton Dickinson FACS canto, San Jose, CA) was equipped with 488 nm laser and 530/30 band-pass filter to analyze F-Aβ40 or F-Aβ42 as well as 633 nm laser and 660/20 band-pass filter to analyze AF633-Trf. […] The cellular fluorescence from this cell population was presented as histograms along with relevant statistical values such as geometric mean and coefficient of variance."}, "[5]": {"test_system": "differentiated PC12 cells", "assay": "Cellular uptake by flow cytometry in differentiated PC12 cells", "settings": "for Uptake at 4°C versus 37°C (histograms of cellular fluorescence), F-Aβ42 experiment: 15 µg/ml F-Aβ42 and 20 µg/ml AF633-Trf, 30 min, cells trypsinized", "description": "Rat PC12 cells were plated on glass coverslips or coverslip-bottomed dishes and cultured in DMEM supplemented with: 10% fetal bovine serum, 5% horse serum, 4 mM glutamine, 200 units/ml penicillin, 200 µg/ml streptomycin, and 100 ng/ml nerve growth factor (NGF) (Harlan, Indianapolis, IN) at 37°C under 5% CO2. Uptake studies were conducted 5–7 days after plating, when the cells were well differentiated and the neurite growth was prominent.\nThe PC12 cells were dispersed in growth medium containing 100 ng/ml NGF (Harlan Bioproducts, Indianapolis, IN) and seeded at a density of 50,000/well in 6-well plates. On the seventh day, following sets of experiments were conducted on the differentiated PC-12 cells:\n• To determine the linearity of F-Aβ40 uptake, PC-12 cells were pre-incubated in serum free DMEM for 30 min at 37°C and then incubated with DMEM solution containing 3–15 µg/ml F-Aβ40 for 30 min at 37°C. • To determine the saturability of F-Aβ40 uptake, the PC-12 cells were pre-incubated in 150 µg/ml of unlabeled Aβ40 for 30 min at 37°C, followed by a 30 min incubation in the same solution spiked with 15 µg/ml F-Aβ40.\nAt the end of these experiments, the cells were dissociated with trypsin and centrifuged at 2000 ×g. The cell pellet was washed with and re-suspended in ice cold PBS and analyzed by flow cytometry.\nTo examine the effect of temperature and cellular energy on the internalization of F-Aβ40 and F-Aβ42, the uptake studies were conducted at 4°C or under ATP depleted conditions. In the studies conducted at 4°C, steps outlined previously to investigate clathrin mediated endocytosis were repeated, but at 4°C. In ATP depletion studies, the PC12 cells or RPH neurons were pre-incubated for 30 min in glucose free DMEM containing 0.1% sodium azide and 50 mM 2-deoxy-D-glucose followed by the incubation with glucose free DMEM containing 20 µg/ml AF633-Trf and 15 µg/ml F-Aβ40 for 30 min at 37°C.\nas §1, §2"}, "[6]": {"test_system": "differentiated PC12 cells", "assay": "Cellular uptake and localization by microscopy in differentiated PC12 cells", "settings": "F-Aβ40 and AF633-Trf co-incubated, confocal"}},
  "data": [
    {"substance": "125I-Aβ40: human Aβ40 labeled with 125I using the chloramine-T procedure", "values": [
      {"measurement": "Time course of uptake in brain slices", "setting": "[1]", "result": "linear up to 15 min"},
      {"measurement": "Dependence of internalization by differentiated PC12 cells on donor concentration", "setting": "[2]", "result": "linearly dependent upon the donor concentration"},
      {"measurement": "Internalization by differentiated PC12 cells at 4°C", "setting": "[2]", "result": "internalized even at 4 °C"}
    ]},
    {"substance": "AF633-Trf: Alexa Fluor 633 labeled transferrin, a clathrin mediated endocytosis marker [reference compound]", "values": [
      {"measurement": "Uptake in ATP depleted cells versus normal cells (microscopy)", "setting": "[3]", "result": "no detectable"},
      {"measurement": "Cellular uptake in BBME cells at 4°C compared to 37°C (fluorescence intensities)", "setting": "[4]", "result": "decreased significantly"},
      {"measurement": "Uptake at 4°C versus 37°C (histograms of cellular fluorescence), F-Aβ42 experiment", "setting": "[5]", "result": "significantly lower"},
      {"measurement": "Cellular location after 15 min incubation", "setting": "[6]", "result": "juxta-nuclear region"}
    ]},
    {"substance": "F-Aβ40: fluorescein labeled human Aβ40", "values": [
      {"measurement": "Uptake in cells treated with filipin, inhibitor of caveolae mediated endocytosis", "setting": "[3]", "result": "not significantly affected"},
      {"measurement": "Cellular uptake in BBME cells at 4°C compared to 37°C (fluorescence intensities)", "setting": "[4]", "result": "decreased significantly"},
      {"measurement": "Fluorescence intensity on co-incubation with unlabeled Aβ40 compared to F-Aβ40 alone (saturability)", "setting": "[5]; 150 µg/ml unlabeled Aβ40 + 15 µg/ml F-Aβ40 vs 15 µg/ml F-Aβ40 alone, 37°C", "result": "decreased"},
      {"measurement": "Dependence of accumulation on donor concentration", "setting": "[5]; donor concentrations 3-15 µg/ml, 30 min at 37°C", "result": "linear with the donor concentrations"},
      {"measurement": "Cellular location after 15 min incubation", "setting": "[6]", "result": "mainly confined to the cell membrane"},
      {"measurement": "Cellular location at the end of 45 min incubation", "setting": "[6]; 45 min", "result": "appeared to move into the cytosol"},
      {"measurement": "Intensity in the cells by the end of 60 min incubation", "setting": "[6]; 60 min", "result": "increased substantially"}
    ]},
    {"substance": "F-Aβ42: fluorescein labeled Aβ42", "values": [
      {"measurement": "Uptake at 4°C versus 37°C (histograms of cellular fluorescence), F-Aβ42 experiment", "setting": "[5]", "result": "not significantly different"}
    ]}
  ]
}
